Laboratory results reported in PMC10760395 (2023).
Positions count from the first letter of the chain named. Numbers in names are those of the source. Where “and” joins values, the source holds several entries; their conditions need not be identical. Equal entries are not always repeated.

B1: xiRB49-P125T (antibody, V domains shown)
VH: QVQLQQPGAALVKPGASVKLSCKASGYTFISYWMLWVKQRPGRGLEWIGRIDPDSGGTKYNEKFKSKATLTVDKSSSTAYMQLSSLTSEDSAVYYCAREGDYAWFAYWGQGTLVTVSA
VL: DVLMTQTPLSLPVSLGDQASISCRSSQSIVHSNGNTYLEWYLQKPGQSPKLLIYKVSNRFSGVPDRFSGSGSGTDFTLKISRVEAEDLGVYYCFQGSHVPWTFGGGTKLEIK
B2: Rendomab B49 (RB49), murine mAb purified from hybridoma (antibody, V domains shown)
VH: B1 VH with T115P
VL: B1 VL
B3: recombinant RB49 (reRB49) (antibody, V domains shown)
VH: B1 VH with T115P
VL: B1 VL

Molecular target: T1, endothelin B receptor (ETB) (UniProt P24530 27-442)
T1 chain: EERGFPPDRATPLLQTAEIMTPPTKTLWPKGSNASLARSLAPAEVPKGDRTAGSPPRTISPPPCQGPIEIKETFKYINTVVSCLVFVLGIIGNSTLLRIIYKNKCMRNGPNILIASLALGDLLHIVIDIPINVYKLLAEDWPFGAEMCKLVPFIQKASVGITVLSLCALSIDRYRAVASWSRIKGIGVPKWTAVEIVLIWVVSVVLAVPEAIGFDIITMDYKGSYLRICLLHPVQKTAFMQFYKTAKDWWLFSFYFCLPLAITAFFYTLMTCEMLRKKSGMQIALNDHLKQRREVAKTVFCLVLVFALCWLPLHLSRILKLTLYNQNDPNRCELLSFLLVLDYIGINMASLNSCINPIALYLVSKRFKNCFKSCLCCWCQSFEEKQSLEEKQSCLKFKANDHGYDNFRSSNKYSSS
Experiment: FACS
In the case of B1, the Kd is reported as 6 nM. In the case of B2, the Kd is reported as 4.19 nM and 3.5 nM. Work on B3 yielded a Kd of 3.04 nM.
